One molecule from patent US20190211098A1 (Genentech, published 2019) can be followed below.

The target of assay [1] is T1, Full length myc-DDK tagged PIANP, expressed on transfected 293T cells (human, UniProt Q8IYJ0 32-282).
T1 construct: Bought construct (Origene Cat. No. RC207868); also called myc-PIANP; C12orf53 (human); not shown: myc-DDK tag of the Origene construct RC207868
T1 sequence: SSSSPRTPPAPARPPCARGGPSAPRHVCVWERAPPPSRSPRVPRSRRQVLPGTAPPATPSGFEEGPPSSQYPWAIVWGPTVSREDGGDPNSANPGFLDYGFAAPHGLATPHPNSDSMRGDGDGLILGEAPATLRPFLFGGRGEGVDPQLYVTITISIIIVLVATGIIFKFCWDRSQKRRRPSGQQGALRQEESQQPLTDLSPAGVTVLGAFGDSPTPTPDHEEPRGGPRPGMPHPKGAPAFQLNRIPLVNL
The assay is described as follows: flow cytometry, soluble PILRA-mFc 50 ug/ml on ligand-transfected 293T cells. For orientation: In flow cytometry, cells or beads pass a laser one at a time.

The target of assay [2] is T2, HSV-1 glycoprotein B, full length, expressed on transfected 293T cells (human herpes simplex virus type-1, UniProt P06437 31-904).
T2 construct: Construct cloned from EF157316 (strain KOSc); also called HSV-1 gB; human herpesvirus 1 strain KOSc glycoprotein B (EF157316)
The assay is described as above.

A further assay deals with T3, NPDC1-His (human, UniProt Q9NQX5 35-181, limits assumed).
T3 construct: not shown: His tag
T3 sequence: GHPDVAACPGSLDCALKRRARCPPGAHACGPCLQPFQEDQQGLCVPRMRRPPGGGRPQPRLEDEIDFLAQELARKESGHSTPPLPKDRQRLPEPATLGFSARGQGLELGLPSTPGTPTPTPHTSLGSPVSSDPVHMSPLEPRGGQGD
Nature of the assay: SPR, NPDC1-His binding to PILRA variant.

B1: PILRA G78 variant extracellular domain fused to murine IgG2a Fc (Fc fusion)
chain: QPSGSTGSGPSYLYGVTQPKHLSASMGGSVEIPFSFYYPWELATAPDVRISWRRGHFHGQSFYSTRPPSIHKDYVNRLFLNWTEGQKSGFLRISNLQKQDQSVYFCRVELDTRSSGRQQWQSIEGTKLSITQAVTTTTQRPSSMTTTWRLSSTTTTTGLRVTQGKRRSDSWHISLET
notes: Made in CHO cells, protein A/G purified; also called PILRA-mFc G78; PILRA-Fc G78; not shown: Fc region of murine IgG2a, C-terminal tag
Take B1: the binding result in assay [1] and in assay [2] was “binds” in each case. Moreover, the Kd (as a rule, a measure of binding affinity in units of concentration) with NPDC1-His is 16.8 nM. In addition, in the assay with NPDC1-His, the kon (usually a measure of how fast the partners come together) came to 22000 M⁻¹ s⁻¹.
